This is an account of results in article PMC6381275, “Structure and Mechanism of LcpA, a Phosphotransferase That Mediates Glycosylation of a Gram-Positive Bacterial Cell Wall-Anchored Protein” (mBio, 2019).

The subject of this data set is CC(C)=CCC/C(C)=C/CC/C(C)=C/CO[P@@](=O)(O)OP(=O)(O)O. The data set can be described thus: fluorometric inorganic phosphate release assay (pyrophosphatase). It counts as biochemical, Actinomyces oris. Conditions: 20 mM Tris-HCl pH 8.0, 30°C, 24 h, 3 µM enzyme, 0-150 µM FPP.

For the substance “LcpA (eLcpA, recombinant extracellular LCP domain) (Actinomyces oris)”, the Km is given as 15.2 ± 3.7 µM.

Broadly, the Km is the substrate concentration at which the rate is half of its maximum.
